Test results reported in patent US20160145321A1 (CRUCELL HOLLAND B V, published 2016).

B1: CB003.1 (antibody, V domains shown)
VH: QVQLVQSGPELRKPGASVTVSCKASGYTFTTYYIHWVRQAPGGGLDWMGMINTGSGVTSYAQKFQGRVAMTRDTSTSTVFMELSSLRFEDTALYYCARMYSGSWYPFDYWGQGALVTVSS
VL: EIVLTQSPGTLSLSPGERATLSCRASQNINGNYLAWYQQKPGLAPRLLIYEASSRATGIPDRFSGSGSGTDFTLTISSLEPEDFGVYYCQQYGTSPFFTFGPGTKVDIK
B2: CB010.7 (antibody, V domains shown)
VH: QVQLVESGGGVVQPGRSLRLSCAASGFTFNTHGMHWVRQAPGKGLEWVAVMSYDGTKKYHADSVKGRFTISRDNSKNTLYLQMNSLRVEDTAIYYCAKVGELRSFDWLLADGTAYYYYGMDVWGQGTTVTVSS
VL: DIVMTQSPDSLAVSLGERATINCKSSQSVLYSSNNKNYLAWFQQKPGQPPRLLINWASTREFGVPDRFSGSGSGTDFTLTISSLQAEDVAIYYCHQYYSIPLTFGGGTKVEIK
B3: CB048.3 (antibody, V domains shown)
VH: QVQLVESGGGVVQPGRSLRLSCAASGFTFSNHGMHWVRQAPGKGLEWVAVISYDGNKKYYADSVKGRFTVSRDNSKNTLSLQMDSLRAEDTAIYYCAKTTFYFDDSNYYEYLDYWGQGTLVTVSS
VL: DIQLTQSPSFLSASVGDRVTITCRASQGIRSYLAWYQQKPGKAPKLLIYAASTLQSGVPSRFSGGGSGTEFTLTISSLQPEDSATYYCQQLNTSPPYTFGQGTKLEIK
B4: CB058.1 (antibody, V domains shown)
VH: EVQLVESGGGLVQPGGSLRLSCVASGFTFSSYAMSWVRQAPGKGLEWVSAIRGSVDNTYYADSVKGRFTISRDNSKNTLYLQMNSLRVEDTAVYYCAKDPALYCSGETCFSDLTDWGQGTLVTVSS
VL: DIQMTQSPSSLSASVGDRVTITCRASQGINNYLAWFQQKPGKAPKSLIYAASTLPSGVPSRFSGSGSGTDFTLTISSLQPEDSATYFCQHYIRYPHTFGQGTKLEIK
B5: CB002.1 (antibody, V domains shown)
VH: QVQLQESGPRLVKPSETLSLTCTVSGGSTSSYFWNWIRQPPGKGLEWIGYIYGSGSADYNPSLKSRVTISIDTSKTQFSLKLTSVTAADTAVYYCARSGFCTNDACYRRGSWFDPWGQGTLVTVSS
VL: DIQMTQSPSSLSASVGDRVTITCRASQSIDNYLNWYQQKPGKAPKLLIYAASSLQSGVPSRFSGSGSGTDFTLTVSSLHPEDFATYYCQQSYSTLTWTFGQGTKVEIK
notes: also called CB2.1
B6: CB028.2 (antibody, V domains shown)
VH: QVQLVQSGAEVKKPGASVKVSCKASGYTFTTYGITWVRQAPGQGLEWMGWISGDSDNTNYAQNLQGRVTLTTDISTRTAYMELRSLKPDDTAMYYCARALAKWYCSSSSCFCGGGSCYSDYWGQGTLVTVSS
VL: DIQMTQSPSSLSASVGDRVTITCRASQGMSNYLNWYQQKPGKAPELLIYAASTLQSGVPSRFSGSGSGTDFTLTINSLQPEDFATYFCQQSFSTPLTFGGGTKVEIK

Target: T1, G protein of RSV A/Long (virus, ATCC Cat. No. VR-26) (Respiratory syncytial virus A/Long, UniProt P20895 1-298)
T1 sequence (looked up): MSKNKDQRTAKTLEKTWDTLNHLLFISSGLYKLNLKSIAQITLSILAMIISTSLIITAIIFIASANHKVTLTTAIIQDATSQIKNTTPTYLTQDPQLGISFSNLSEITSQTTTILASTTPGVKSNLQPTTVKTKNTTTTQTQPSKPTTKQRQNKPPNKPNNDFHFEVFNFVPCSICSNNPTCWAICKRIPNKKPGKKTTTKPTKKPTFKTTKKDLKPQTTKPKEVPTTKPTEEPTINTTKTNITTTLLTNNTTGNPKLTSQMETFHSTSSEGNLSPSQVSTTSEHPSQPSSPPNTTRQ
Assay: cell-based or functional assay

| Binder | Neutralization IC50 (plaque reduction assay, Vero cells) [µg/mL] |
| --- | --- |
| B1 | 0.016 |
| B2 | 0.012 |

Target: T2, G protein of RSV A/A2 (virus, ATCC Cat. No. VR-1540) (Respiratory syncytial virus A/A2, UniProt P03423 1-298)
T2 sequence: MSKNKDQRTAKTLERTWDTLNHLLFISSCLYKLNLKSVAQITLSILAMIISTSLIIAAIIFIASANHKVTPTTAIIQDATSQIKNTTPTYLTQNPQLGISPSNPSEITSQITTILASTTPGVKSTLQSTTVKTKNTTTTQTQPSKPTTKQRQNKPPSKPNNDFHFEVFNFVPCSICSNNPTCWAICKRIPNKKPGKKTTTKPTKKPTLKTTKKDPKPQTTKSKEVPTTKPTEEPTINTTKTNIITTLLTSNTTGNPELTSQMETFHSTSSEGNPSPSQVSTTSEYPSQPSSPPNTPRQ
Assay: cell-based or functional assay

| Binder | Neutralization IC50 (plaque reduction assay, Vero cells) [µg/mL] |
| --- | --- |
| B3 | 0.0167 |
| B4 | 0.0144 |
| B5 | 0.0355 |
| B1 | 0.0315 |
| B2 | 0.0165 |

Target: T3, G protein of RSV B/18537 (virus, ATCC Cat. No. VR-1580) (Respiratory syncytial virus B/18537, UniProt P20896 1-292)
T3 sequence: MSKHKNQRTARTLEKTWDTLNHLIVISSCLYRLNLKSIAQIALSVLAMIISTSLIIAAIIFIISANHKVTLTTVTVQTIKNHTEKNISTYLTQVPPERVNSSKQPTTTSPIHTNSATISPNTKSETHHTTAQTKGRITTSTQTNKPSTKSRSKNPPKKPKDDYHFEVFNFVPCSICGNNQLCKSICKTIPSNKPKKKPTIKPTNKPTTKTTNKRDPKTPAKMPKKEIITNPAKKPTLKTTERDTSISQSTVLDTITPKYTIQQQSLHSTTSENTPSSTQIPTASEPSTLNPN
Assay: cell-based or functional assay

| Binder | Neutralization IC50 (plaque reduction assay, Vero cells) [µg/mL] |
| --- | --- |
| B1 | 0.0246 |
| B2 | 0.0141 |
| B6 | 0.0196 |

Target: T4, Recombinant RSV attachment protein (G protein) corresponding to RSV A/Long (Respiratory syncytial virus A/Long, UniProt P20895 65-298)
T4 construct: also called RSV Ga; Ga
T4 sequence: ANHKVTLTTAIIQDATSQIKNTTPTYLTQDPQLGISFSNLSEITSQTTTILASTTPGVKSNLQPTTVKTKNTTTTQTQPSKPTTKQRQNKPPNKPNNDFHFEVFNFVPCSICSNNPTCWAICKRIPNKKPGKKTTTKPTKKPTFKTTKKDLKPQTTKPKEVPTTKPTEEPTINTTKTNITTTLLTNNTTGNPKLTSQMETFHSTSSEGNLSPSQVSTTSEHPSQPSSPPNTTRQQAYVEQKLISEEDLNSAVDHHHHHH
Assay: ELISA, coated recombinant protein (Example 6)

| Binder | binding result |
| --- | --- |
| B3 | binds |
| B4 | binds |
| B5 | binds |
| B6 | binds |

Target: T5, Recombinant RSV attachment protein (G protein) corresponding to RSV B/B1 (Respiratory syncytial virus B/B1, UniProt O36633 65-299)
T5 sequence: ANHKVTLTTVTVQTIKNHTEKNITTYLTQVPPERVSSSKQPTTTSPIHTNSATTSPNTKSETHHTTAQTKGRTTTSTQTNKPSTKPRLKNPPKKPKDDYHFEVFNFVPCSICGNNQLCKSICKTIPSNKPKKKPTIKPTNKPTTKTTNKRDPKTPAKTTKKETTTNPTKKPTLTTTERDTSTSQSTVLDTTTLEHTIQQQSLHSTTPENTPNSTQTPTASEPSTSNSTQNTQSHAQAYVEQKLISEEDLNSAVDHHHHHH
Assay: ELISA, coated recombinant protein (Example 6)

| Binder | binding result |
| --- | --- |
| B3 | binds |
| B4 | binds |
| B5 | binds |
| B2 | binds |
| B6 | binds |
